The values below come from US20210404962A1.

The target of assay [1] is GFP1-10 (large fragment of GFP) (Aequorea victoria (Water jellyfish) (Mesonema victoria)) [GFP: P42212]. The assay is described as follows: fluorescence increase over time with varied GFP11 peptide and purified GFP1-10 at 3 mM, one site binding model.
The target is the same in assay [2]. The experiment in a line: fluorescence reconstitution, pseudo-first order, one phase association fit.
The target is the same in assay [3]. The assay is described as follows: fluorescence reconstitution kinetics, calculated from kobs at varied GFP11 concentrations.
Assay [4] shares this target. The assay is described as follows: stopped-flow fluorescence reconstitution, pseudo-first order, one phase association fit; 50 nM GFP11, excess GFP1-10.
Assay [5] has the same target. The assay is described as follows: fluorescence reconstitution, pseudo-first order, one phase association fit; GFP11 concentration not stated.

By Kd is commonly meant the equilibrium constant for the complex coming apart. One may read the kon as the rate constant with which the complex forms. Turning to “GFP11 peptide (chemically synthesized small fragment of split GFP; variant not stated)”, in assay [1], the Kd was 481 µM. Besides, in assay [2], the half time is 95 s. Further, in assay [3], the kon is 760000 M⁻¹ s⁻¹. For the same substance, the kobs in assay [4] came to 0.003 s⁻¹; in assay [5], 0.007 s⁻¹.
